Test results published in publication PMC3785714 (Biochemical Society transactions, 2012).

Biological target: the molecule itself

B1: p150CC1 (residues 221-509) of dynactin p150Glued (domain or fragment, UniProt P13496 221-509, looked up)
chain: ALLEAQKTSAELQAQLADLTEKLETLKQRRNEDKERLREFDKMKIQFEQLQEFRTKIMGAQASLQKELLRAKQEAKDAIEAKEQHAQEMADLADNVEMITLDKEMAEEKADTLQLELESSKERIEELEVDLELLRSEMQNKAESAIGNISGGGDSPGLSTYEFKQLEQQNIRLKETLVRLRDLSAHDKHDIQKLSKELEMKRSEVTELERTKEKLSAKIDELEAIVADLQEQVDAALGAEEMVEQLAEKKMELEDKVKLLEEEIAQLEALEEVHEQLVESNHELELDLR
stoichiometry N: 2
